From PMC10864208 (2024)
“And” between values parts separate entries of the source, which are not always exact repeats. Identical values can stand only once. Non-standard residues stand in square brackets, D forms with d. *: point of attachment. FITC = O=C1OC2(c3ccc(O)cc3Oc3cc(O)ccc32)c2ccc(NC(=S)*)cc21; pS = N[C@@H](COP(=O)(O)O)C(=O)O

Columns and labels:
Test in all cases: FP
MDM2 179-193 [1] = target: T1, MDM2 179-193 (Homo sapiens, UniProt Q00987)
T1 chain: {FITC}-RQRKRHK[pS]DSISLSF-NH2

MDM2 159-193 = MDM2 159-193 (Homo sapiens, UniProt Q00987, pS186, N-terminal FITC)
Chain of MDM2 159-193 (Q00987 159-193): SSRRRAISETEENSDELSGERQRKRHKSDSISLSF

MDM2 179-193 [2] = target: T2, MDM2 179-193 (Homo sapiens, UniProt Q00987)
T2 chain: {FITC}-RQRKRHK[pS]DSISLSF-NH2

MDM2 159-173 = target: T3, MDM2 159-173 (Homo sapiens, UniProt Q00987)
T3 chain: {FITC}-SSRRRAI[pS]ETEENSD-NH2

B1: 14-3-3ζ (protein)
chain: MDKNELVQKAKLAEQAERYDDMAACMKSVTEQGAELSNEERNLLSVAYKNVVGARRSSWRVVSSIEQKTEGAEKKQQMAREYREKIETELRDICNDVLSLLEKFLIPNASQAESKVFYLKMKGDYYRYLAEVAAGDDKKGIVDQSQQAYQEAFEISKKEMQPTHPIRLGLALNFSVFYYEILNSPEKACSLAKTAFDEAIAELDTLSEESYKDSTLIMQLLRDNLTLWTSDTQGDEAEAGEGGEN
Kd (MDM2 179-193 [1]): 11.4 µM

B2: 14-3-3σ (protein)
chain: MERASLIQKAKLAEQAERYEDMAAFMKGAVEKGEELSCEERNLLSVAYKNVVGGQRAAWRVLSSIEQKSNEEGSEEKGPEVREYREKVETELQGVCDTVLGLLDSHLIKEAGDAESRVFYLKMKGDYYRYLAEVATGDDKKRIIDSARSAYQEAMDISKKEMPPTNPIRLGLALNFSVFHYEIANSPEEAISLAKTTFDEAMADLHTLSEDSYKDSTLIMQLLRDNLTLWTADNAGEEGGEAPQEPQS
Kd (MDM2 179-193 [1]): 24.6 µM and ~26.2 µM | Kd (MDM2 159-193): > 124 µM | Kd (MDM2 179-193 [2]): 10.8 µM | Kd (MDM2 159-173): > 115 µM
